Results reported in article PMC3037348, “Epstein-Barr Virus Nuclear Antigen 3C Facilitates G1-S Transition by Stabilizing and Enhancing the Function of Cyclin D1” (PLoS Pathogens, 2011).

Biological target: flag-tagged Cyclin D1 (UniProt P24385 1-295)
Test: cell-based or functional assay

flag-tagged Cyclin D1, sequence (P24385 whole entry): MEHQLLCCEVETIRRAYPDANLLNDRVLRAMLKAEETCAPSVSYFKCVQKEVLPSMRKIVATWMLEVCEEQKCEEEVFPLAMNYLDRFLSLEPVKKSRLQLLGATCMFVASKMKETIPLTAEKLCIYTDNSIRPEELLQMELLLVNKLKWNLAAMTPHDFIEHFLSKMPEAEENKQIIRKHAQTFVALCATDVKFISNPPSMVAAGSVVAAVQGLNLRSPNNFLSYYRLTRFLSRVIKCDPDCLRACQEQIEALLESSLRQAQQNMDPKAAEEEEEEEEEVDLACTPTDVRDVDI

B1: myc-tagged full-length EBNA3C (residues 1-992) (natural protein)
chain: MESFEGQGDSRQSPDNERGDNVQTTGEHDQDPGPGPPSSGASERLVPEESYSRDQQPWGQSRGDENRGWMQRIRRRRRRRAALSGHLLDTEDNVPPWLPPHDITPYTARNIRDAACRAVKQSHLQALSNLILDSGLDTQHILCFVMAARQRLQDIRRGPLVAEGGVGWRHWLLTSPSQSWPMGYRTATLRTLTPVPNRVGADSIMLTATFGCQNAARTLNTFSATVWTPPHAGPREQERYAREAEVRFLRGKWQRRYRRIYDLIELCGSLHHIWQNLLQTEENLLDFVRFMGVMSSCNNPAVNYWFHKTIGNFKPYYPWNAPPNENPYHARRGIKEHVIQNAFRKAQIQGLSMLATGGEPRGDATSETSSDEDTGRQGSDVELESSDDELPYIDPNMEPVQQRPVMFVSRVPAKKPRKLPWPTPKTHPVKRTNVKTSDRSDKAEAQSTPERPGPSEQSSVTVEPAHPTPVEMPMVILHQPPPVPKPVPVKPTPPPSRRRRGACVVYDDDVIEVIDVETTEDSSSVSQPNKPHRKHQDGFQRSGRRQKRAAPPTVSPSDTGPPAVGPPAAGPPAAGPPAAGPPAAGPPAAGPPAAGPRILAPLSAGPPAAGPHIVTPPSARPRIMAPPVVRMFMRERQLPQSTGRKPQCFWEMRAGREITQMQQEPSSHLQSATQPTTPRPSWAPSVCALSVMDAGKAQPIESSHLSSMSPTQPISHEEQPRYEDPDAPLDLSLHPDVAAQPAPQAPYQGYQEPPAPQAPYQGYQEPPPPQAPYQGYQEPPAHGLQSSSYPGYAGPWTPRSQHPCYRHPWAPWSQDPVHGHTQGPWDPRAPHLPPQWDGSAGHGQDQVSQFPHLQSETGPPRLQLSLVPLVSSSAPSWSSPQPRAPIRPIPTRFPPPPMPLQDSMAVGCDSSGTACPSMPFASDYSQGAFTPLDINATTPKRPRVEESSHGPARCSQATAEAQEILSDNSEISVFPKDAKQTDYDASTESELD
  in vitro kinase activity of flag-Cyclin D1/CDK6 immunoprecipitates toward histone H1, HEK 293T cells transfected with increasing amounts of myc-EBNA3C vector (0, 5, 15 µg): 1.6 fold
  in vitro kinase activity of flag-Cyclin D1/CDK6 immunoprecipitates toward recombinant GST-pRb (residues 792-928), HEK 293T cells transfected with increasing amounts of myc-EBNA3C vector (0, 5, 15 µg): 2.3 fold
